In IntAct's records for PubMed 18996118:

B1: Capsid protein (Pseudomonas phage Pf3), P03623 (parent)
chain: MQSVITDVTGQLTAVQADITTIGGAIIVLAAVVLGIRWIKAQFF
partner: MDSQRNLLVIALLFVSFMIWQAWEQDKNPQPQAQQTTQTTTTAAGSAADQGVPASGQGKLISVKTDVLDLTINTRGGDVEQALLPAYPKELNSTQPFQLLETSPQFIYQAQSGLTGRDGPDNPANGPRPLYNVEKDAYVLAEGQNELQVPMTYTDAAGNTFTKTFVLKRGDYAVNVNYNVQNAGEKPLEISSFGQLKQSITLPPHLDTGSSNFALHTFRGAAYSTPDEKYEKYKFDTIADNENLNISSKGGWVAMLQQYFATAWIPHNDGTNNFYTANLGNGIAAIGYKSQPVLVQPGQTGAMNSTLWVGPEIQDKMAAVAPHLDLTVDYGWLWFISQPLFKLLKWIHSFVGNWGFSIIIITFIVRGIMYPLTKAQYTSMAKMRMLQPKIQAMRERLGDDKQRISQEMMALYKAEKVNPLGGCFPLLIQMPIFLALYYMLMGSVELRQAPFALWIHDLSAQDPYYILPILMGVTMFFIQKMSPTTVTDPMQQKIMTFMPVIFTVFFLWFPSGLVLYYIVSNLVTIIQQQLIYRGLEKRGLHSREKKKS
B2: Membrane protein insertase YidC (Escherichia coli (strain K12)), P25714 (parent)
chain: B1 partner
partner: B1 chain

Variants of: B1
Details: with yidc_ecoli yidC

With MQSVITDVTGQLTAVQADITTIGGAIICLAAVVLGIRWIKAQFF [V28C] as the variant, how does the “effect of a mutation on the interaction” value read?
Its value is “increasing interaction”.

Variants of: B1
Details: with yidc_ecoli yidC, P25714

Which “effect of a mutation on the interaction” value does the source give for MQSVITDVTGQLTAVQADITTIGGAICVLAAVVLGIRWIKAQFF [I27C] here?
Its value is “increasing interaction”.

Variants of: B2
Details: with capsd_bppf3 VIII

MDSQRNLLVIALLFVSCMIWQAWEQDKNPQPQAQQTTQTTTTAAGSAADQGVPASGQGKLISVKTDVLDLTINTRGGDVEQALLPAYPKELNSTQPFQLLETSPQFIYQAQSGLTGRDGPDNPANGPRPLYNVEKDAYVLAEGQNELQVPMTYTDAAGNTFTKTFVLKRGDYAVNVNYNVQNAGEKPLEISSFGQLKQSITLPPHLDTGSSNFALHTFRGAAYSTPDEKYEKYKFDTIADNENLNISSKGGWVAMLQQYFATAWIPHNDGTNNFYTANLGNGIAAIGYKSQPVLVQPGQTGAMNSTLWVGPEIQDKMAAVAPHLDLTVDYGWLWFISQPLFKLLKWIHSFVGNWGFSIIIITFIVRGIMYPLTKAQYTSMAKMRMLQPKIQAMRERLGDDKQRISQEMMALYKAEKVNPLGGCFPLLIQMPIFLALYYMLMGSVELRQAPFALWIHDLSAQDPYYILPILMGVTMFFIQKMSPTTVTDPMQQKIMTFMPVIFTVFFLWFPSGLVLYYIVSNLVTIIQQQLIYRGLEKRGLHSREKKKS [F17C] was tested. Which “effect of a mutation on the interaction” value did it give?
The value was “increasing interaction”.

Variants of: B2
Details: with capsd_bppf3 VIII
Remark: another data set of the same source

For MDSQRNLLVIALLFVSFMIWQAWEQDKNPQPQAQQTTQTTTTAAGSAADQGVPASGQGKLISVKTDVLDLTINTRGGDVEQALLPAYPKELNSTQPFQLLETSPQFIYQAQSGLTGRDGPDNPANGPRPLYNVEKDAYVLAEGQNELQVPMTYTDAAGNTFTKTFVLKRGDYAVNVNYNVQNAGEKPLEISSFGQLKQSITLPPHLDTGSSNFALHTFRGAAYSTPDEKYEKYKFDTIADNENLNISSKGGWVAMLQQYFATAWIPHNDGTNNFYTANLGNGIAAIGYKSQPVLVQPGQTGAMNSTLWVGPEIQDKMAAVAPHLDLTVDYGWLWFISQPLFKLLKWIHSFVGNWGFSIIIITFIVRGIMYPLTKAQYTSMAKMRMLQPKIQAMRERLGDDKQRISQEMMALYKAEKVNPLGGCFPLLIQCPIFLALYYMLMGSVELRQAPFALWIHDLSAQDPYYILPILMGVTMFFIQKMSPTTVTDPMQQKIMTFMPVIFTVFFLWFPSGLVLYYIVSNLVTIIQQQLIYRGLEKRGLHSREKKKS [M430C], which “effect of a mutation on the interaction” value is on record?
The value was “increasing interaction”.

Variants of: B2
Details: with capsd_bppf3 VIII, P03623

For MDSQRNLLVIALLFVCFMIWQAWEQDKNPQPQAQQTTQTTTTAAGSAADQGVPASGQGKLISVKTDVLDLTINTRGGDVEQALLPAYPKELNSTQPFQLLETSPQFIYQAQSGLTGRDGPDNPANGPRPLYNVEKDAYVLAEGQNELQVPMTYTDAAGNTFTKTFVLKRGDYAVNVNYNVQNAGEKPLEISSFGQLKQSITLPPHLDTGSSNFALHTFRGAAYSTPDEKYEKYKFDTIADNENLNISSKGGWVAMLQQYFATAWIPHNDGTNNFYTANLGNGIAAIGYKSQPVLVQPGQTGAMNSTLWVGPEIQDKMAAVAPHLDLTVDYGWLWFISQPLFKLLKWIHSFVGNWGFSIIIITFIVRGIMYPLTKAQYTSMAKMRMLQPKIQAMRERLGDDKQRISQEMMALYKAEKVNPLGGCFPLLIQMPIFLALYYMLMGSVELRQAPFALWIHDLSAQDPYYILPILMGVTMFFIQKMSPTTVTDPMQQKIMTFMPVIFTVFFLWFPSGLVLYYIVSNLVTIIQQQLIYRGLEKRGLHSREKKKS [S16C], which “effect of a mutation on the interaction” value is on record?
Its value is “increasing interaction”.
